Consider 83 variants from the RNAGym collection of RNA variant scans (doi:10.1073/pnas.2313332121).

This sample holds only a part of the variants without activity. Some results are limits rather than exact numbers.

B1: TPR 5TU (parent)
chain: GGAUCUUCUCGAUCUAACAAAAAAGACAAAUCUGCCACAAAGCUUGAGAGCAUCUUCGGAUGCAGAGGCGGCAGCCUUCGGUGGCGCGAUAGCGCCAACGUUCUCAACUAUGACACGCAAAACGCGUGCUCCGUUGAAUGGAGUUUAUCAUG

Variants of B1 are the subject of the series. Kind of series: polymerase ribozyme fitness, log enrichment relative to wild type (log ratio); higher = more active; in vitro selection for triplet polymerase activity. The method in brief: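 Mutant libraries were PCR-built and transcribed for each subunit of a heterodimeric triplet polymerase ribozyme and selected for one round in triplicate at −7 °C, frozen, before gel excision of extended constructs and streptavidin-bead capture. Input and output libraries were Illumina-sequenced, keeping genotypes with ≥10 input reads and ≥1 read per output. Fitness is a logarithmic ratio of genotype to wild-type enrichment, in base 2, using inverse-variance-weighted replicate averages.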
With C32G C54U A73C C79U C87G U145G, the “polymerase ribozyme fitness (log ratio)” value was at most -4.2.
With C32G U45C, the “polymerase ribozyme fitness (log ratio)” value was -4.16.
For the variant U33C G68A, the “polymerase ribozyme fitness (log ratio)” value is -3.97.
With U33C A39C G88A C118G C123A the figure was at most -4.2; with U31C A52C C57U G59C C99U U145G, -3.63; with U31C G34U A52U U56A A60G G84A G92A C95G C105A A110C G133C U148A, at most -4.2.
To C32G A37G C38U U56A A119C belongs at most -4.2.
In the case of U31G A122U A142C, the “polymerase ribozyme fitness (log ratio)” value was -1.56.
Take U31G A60G G152U: the “polymerase ribozyme fitness (log ratio)” value was -3.16.
As for C32U C38U C93G A122G G126C U145A, the “polymerase ribozyme fitness (log ratio)” value is at most -4.2.
For the variant C32G G70C, the “polymerase ribozyme fitness (log ratio)” value was at most -4.2.
For C32G G65C A73G C76U A106G, the “polymerase ribozyme fitness (log ratio)” value is at most -4.2.
Take C32U C54G G68U C75A: the “polymerase ribozyme fitness (log ratio)” value was -3.88.
With U33A U102C A107U C125A the figure was at most -4.2; with C32A U61A C63G A66U U77G, at most -4.2.
To C32A G83A G88C C116G G140C belongs -4.04; to U33A A91C, at most -4.2.
As for U33A A91G, the “polymerase ribozyme fitness (log ratio)” value was at most -4.2.
With C32G G94C the figure was -4.18; with C32G G94A, -3.8; with C32A A37U U56A G74A C76G G86A A115G G124A U151G, at most -4.2.
With C32G A41U A91U A107G C125G U135C the figure was at most -4.2; with C32U G81U G84A G94C, -3.46; with C32G A37G C95U, -3.7.
For the variant C32A C85U, the “polymerase ribozyme fitness (log ratio)” value was -4.06.
To U31G U53A A89C C93G G100A A137C A147U G152C belongs at most -4.2; to U33A C95U A142U G143U, -4.13; to C32U C63U A91U C96U A113U G124C, at most -4.2.
As for U31C A60U A110G C118G U144C, the “polymerase ribozyme fitness (log ratio)” value was -3.59.
With U33C A60U A73U A122G the figure was -2.54.
In the case of C32U G59C A60C C63G C93A C99U A115G, the “polymerase ribozyme fitness (log ratio)” value is at most -4.2.
With C32U U61C the figure was -3.52.
To C32U U61G belongs -3.73; to U31C U101C G124A, 1.05.
To U31G U33A C75G A91G G140A G152A belongs -3.96.
As for U31C G86C C93U A98U, the “polymerase ribozyme fitness (log ratio)” value was -1.96.
To U33A C43G G50U G84A A89U belongs at most -4.2.
In the case of U33A G86A A142G, the “polymerase ribozyme fitness (log ratio)” value is at most -4.2.
With U31C C43A A66C C79U C85A A120C G140U the figure was at most -4.2; with C32A G74C G81C G94A A121U, -4.03; with U33A G46U C75A G140C, at most -4.2.
In the case of C32A U45G G46A C99G C103G U127C U148G, the “polymerase ribozyme fitness (log ratio)” value is at most -4.2.
Take U31G C57G G58A A106G U111G G143U U144A: the “polymerase ribozyme fitness (log ratio)” value is at most -4.2.
As to U31A U144A, the “polymerase ribozyme fitness (log ratio)” value was determined as 0.137.
Take U31G U148C: the “polymerase ribozyme fitness (log ratio)” value was -2.37.
Regarding C32U U61A G94C C105U A107U A110U, the “polymerase ribozyme fitness (log ratio)” value was at most -4.2.
To C32A C96U belongs -4.11; to C32G U55G C79U C96G, -4.01.
With C32G C105U the figure was at most -4.2; with C32G C36U A64U C96U A107C G117U U134C A150C, at most -4.2.
To C32A G84A belongs -3.57; to C32U G80U U102G A113U C125U G126A, at most -4.2; to C32A C85U A142U, at most -4.2.
In the case of U33C G42A G81A A89G A119C C132U, the “polymerase ribozyme fitness (log ratio)” value is at most -4.2.
U33C G59A A60U U145G: the “polymerase ribozyme fitness (log ratio)” value is -4.
Turning to U31C G50A C96G, the “polymerase ribozyme fitness (log ratio)” value is -0.777.
To C32U A49C G92U C99A A115G A147C belongs at most -4.2; to U31C C85U, 0.604.
To C32U C69A G84A C96G U111A belongs at most -4.2; to C32A U44A A60C C79G G92U, at most -4.2; to C32G U56A G94A C108U G124C U145A, at most -4.2.
With U31C A60C C95A C99G A122G the figure was -3.66; with C32U C36A U55G C93G G133U G141U, -4.01; with U31G A41C C75U C85G G88C A137U, at most -4.2.
On to U31G C116G U144C, for which the “polymerase ribozyme fitness (log ratio)” value is -4.03.
As for U31G C95A C123G, the “polymerase ribozyme fitness (log ratio)” value was 0.831.
In the case of C32U G88A U145G, the “polymerase ribozyme fitness (log ratio)” value is at most -4.2.
With C32U C87U C103G the figure was at most -4.2; with C32G A110G A122C G141C, -4.02; with C32U G71C C103G A113G A121G U134C, at most -4.2.
With U31C A40C G94A the figure was 1.25.
Regarding C32G G59C C87G, the “polymerase ribozyme fitness (log ratio)” value was at most -4.2.
On to C32U A41C G58U A60C C75G C96U C114A, for which the “polymerase ribozyme fitness (log ratio)” value is at most -4.2.
With U33C G50A the figure was -3.85; with U31G C35A G42A, at most -4.2.
To U31G A40G U61A C87U G112U G141C belongs at most -4.2; to C32G A52U C99U A106G G124U C131A, at most -4.2; to U31C G84A, 0.831.
Take C32A C75G G92A A150U: the “polymerase ribozyme fitness (log ratio)” value was at most -4.2.
To C32U U53A A91C G94A C105G A121U U151C belongs at most -4.2; to C32A U53G C85U C96G G136C, at most -4.2.
Turning to U31G C99U C116U A137G, the “polymerase ribozyme fitness (log ratio)” value was -1.84.
To U31G G59U C69A U134G G136U belongs -3.84.
